Consider one molecule from paper PMC8529494, “KAT6A Acetylation of SMAD3 Regulates Myeloid‐Derived Suppressor Cell Recruitment, Metastasis, and Immunotherapy in Triple‐Negative Breast Cancer” (Advanced Science, 2021).

The experiment concerns the target T1, (His)6-TRIM24 (UniProt O15164 1-1050).
T1 construct: Tripartite motif-containing 24 (TRIM24); also called tripartite motif-containing 24; source: recombinant, purified
T1 sequence (looked up): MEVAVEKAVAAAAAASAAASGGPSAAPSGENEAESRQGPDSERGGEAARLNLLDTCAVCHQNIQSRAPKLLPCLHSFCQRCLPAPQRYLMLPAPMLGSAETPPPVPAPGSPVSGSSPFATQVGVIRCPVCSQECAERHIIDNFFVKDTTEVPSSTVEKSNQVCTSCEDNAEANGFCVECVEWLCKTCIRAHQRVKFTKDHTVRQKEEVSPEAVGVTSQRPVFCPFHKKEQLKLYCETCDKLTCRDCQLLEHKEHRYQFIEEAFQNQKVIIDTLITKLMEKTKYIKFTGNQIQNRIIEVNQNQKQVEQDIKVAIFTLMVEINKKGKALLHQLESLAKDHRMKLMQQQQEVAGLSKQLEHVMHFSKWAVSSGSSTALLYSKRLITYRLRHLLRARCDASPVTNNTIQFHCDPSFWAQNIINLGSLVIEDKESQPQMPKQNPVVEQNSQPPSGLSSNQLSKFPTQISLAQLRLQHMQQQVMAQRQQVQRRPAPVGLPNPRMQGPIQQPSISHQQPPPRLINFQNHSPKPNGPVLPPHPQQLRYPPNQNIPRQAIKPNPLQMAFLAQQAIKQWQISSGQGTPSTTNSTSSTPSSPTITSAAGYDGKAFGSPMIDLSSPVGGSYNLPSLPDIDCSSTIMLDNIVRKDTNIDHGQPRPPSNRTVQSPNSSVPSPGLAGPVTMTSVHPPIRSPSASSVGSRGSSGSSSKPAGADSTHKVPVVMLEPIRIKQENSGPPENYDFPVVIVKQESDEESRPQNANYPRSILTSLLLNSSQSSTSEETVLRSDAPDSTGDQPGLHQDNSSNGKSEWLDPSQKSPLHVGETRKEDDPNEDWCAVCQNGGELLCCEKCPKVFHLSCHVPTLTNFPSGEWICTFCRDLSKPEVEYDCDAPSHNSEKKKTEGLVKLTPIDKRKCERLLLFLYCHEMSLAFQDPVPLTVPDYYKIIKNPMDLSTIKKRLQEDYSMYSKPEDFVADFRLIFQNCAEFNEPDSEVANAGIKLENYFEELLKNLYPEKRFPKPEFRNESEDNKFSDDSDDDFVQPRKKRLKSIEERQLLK
As to the kind of experiment: pull-down; GST pull-down with purified GST-SMAD3 and (His)6-TRIM24, western blot with anti-TRIM24 and anti-SMAD3. The following applies: both partners purified.

B1: GST-SMAD3 (natural protein, UniProt P84022 1-425, looked up)
chain: MSSILPFTPPIVKRLLGWKKGEQNGQEEKWCEKAVKSLVKKLKKTGQLDELEKAITTQNVNTKCITIPRSLDGRLQVSHRKGLPHVIYCRLWRWPDLHSHHELRAMELCEFAFNMKKDEVCVNPYHYQRVETPVLPPVLVPRHTEIPAEFPPLDDYSHSIPENTNFPAGIEPQSNIPETPPPGYLSEDGETSDHQMNHSMDAGSPNLSPNPMSPAHNNLDLQPVTYCEPAFWCSISYYELNQRVGETFHASQPSMTVDGFTDPSNSERFCLGLLSNVNRNAAVELTRRHIGRGVRLYYIGGEVFAECLSDSAIFVQSPNCNQRYGWHPATVCKIPPGCNLKIFNNQEFAALLAQSVNQGFEAVYQLTRMCTIRMSFVKGWGAEYRRQTVTSTPCWIELHLNGPLQWLDKVLTQMGSPSIRCSSVS
notes: SMAD3; also called recombinant GST-SMAD3; source: recombinant, purified
In the case of B1, the binding result is “binds”.
